Positions count from the first letter of the chain named. Read-outs that look alike come from different tables or passages of the source. Bridges are numbered along the chain shown (N, C = ends). Where no end group is shown, it is not given here. [ ]: non-standard residue; d: D form. PhLac = O=C(O)[C@@H](O)Cc1ccccc1
B1: [PLA6, D9, E16, K20E24(Lactam), D28]G(6-29) (peptide)
peptide: [PhLac]TSDYSKYLDERRAKDFVEWLMDT-NH2
modifications: lactam 15-19; N-terminus assumed
SMILES: CSCC[C@H](NC(=O)[C@H](CC(C)C)NC(=O)[C@H](Cc1c[nH]c2ccccc12)NC(=O)[C@@H]1CCC(=O)NCCCC[C@H](NC(=O)[C@H](C)NC(=O)[C@H](CCCNC(=N)N)NC(=O)[C@H](CCCNC(=N)N)NC(=O)[C@H](CCC(=O)O)NC(=O)[C@H](CC(=O)O)NC(=O)[C@H](CC(C)C)NC(=O)[C@H](Cc2ccc(O)cc2)NC(=O)[C@H](CCCCN)NC(=O)[C@H](CO)NC(=O)[C@H](Cc2ccc(O)cc2)NC(=O)[C@H](CC(=O)O)NC(=O)[C@H](CO)NC(=O)[C@@H](NC(=O)[C@@H](O)Cc2ccccc2)[C@@H](C)O)C(=O)N[C@@H](CC(=O)O)C(=O)N[C@@H](Cc2ccccc2)C(=O)N[C@@H](C(C)C)C(=O)N1)C(=O)N[C@@H](CC(=O)O)C(=O)N[C@H](C(N)=O)[C@@H](C)O
B2: [E9, E16K20(lactam), D28]G(4~29) (peptide)
peptide: GTFTSEYSKYLDERRAKDFVQWLMDT-NH2
modifications: lactam 13-17; N-terminus assumed
SMILES: CSCC[C@H](NC(=O)[C@H](CC(C)C)NC(=O)[C@H](Cc1c[nH]c2ccccc12)NC(=O)[C@H](CCC(N)=O)NC(=O)[C@@H](NC(=O)[C@H](Cc1ccccc1)NC(=O)[C@H](CC(=O)O)NC(=O)[C@@H]1CCCCNC(=O)CC[C@H](NC(=O)[C@H](CC(=O)O)NC(=O)[C@H](CC(C)C)NC(=O)[C@H](Cc2ccc(O)cc2)NC(=O)[C@H](CCCCN)NC(=O)[C@H](CO)NC(=O)[C@H](Cc2ccc(O)cc2)NC(=O)[C@H](CCC(=O)O)NC(=O)[C@H](CO)NC(=O)[C@@H](NC(=O)[C@H](Cc2ccccc2)NC(=O)[C@@H](NC(=O)CN)[C@@H](C)O)[C@@H](C)O)C(=O)N[C@@H](CCCNC(=N)N)C(=O)N[C@@H](CCCNC(=N)N)C(=O)N[C@@H](C)C(=O)N1)C(C)C)C(=O)N[C@@H](CC(=O)O)C(=O)N[C@H](C(N)=O)[C@@H](C)O
B3: PLA 6, D9, D28 glucagon D9(6-29) analog (Table 15, peptide 7) (peptide)
peptide: FTSDYSKYLDSRRAQDFVQWLMDT
modifications: first residue is phenyl lactic acid (PLA)
B4: [PLA6, D9, E16K20(lactam), D28]G(6-29) (peptide)
peptide: [PhLac]TSDYSKYLDERRAKDFVQWLMDT-NH2
modifications: lactam 11-15
B5: [A2E3, E16K20(Lactam), D28]G(1~29) (peptide)
peptide: HAEGTFTSEYSKYLDERRAKDFVQWLMDT-NH2
modifications: lactam 16-20; N-terminus assumed
SMILES: CSCC[C@H](NC(=O)[C@H](CC(C)C)NC(=O)[C@H](Cc1c[nH]c2ccccc12)NC(=O)[C@H](CCC(N)=O)NC(=O)[C@@H](NC(=O)[C@H](Cc1ccccc1)NC(=O)[C@H](CC(=O)O)NC(=O)[C@@H]1CCCCNC(=O)CC[C@H](NC(=O)[C@H](CC(=O)O)NC(=O)[C@H](CC(C)C)NC(=O)[C@H](Cc2ccc(O)cc2)NC(=O)[C@H](CCCCN)NC(=O)[C@H](CO)NC(=O)[C@H](Cc2ccc(O)cc2)NC(=O)[C@H](CCC(=O)O)NC(=O)[C@H](CO)NC(=O)[C@@H](NC(=O)[C@H](Cc2ccccc2)NC(=O)[C@@H](NC(=O)CNC(=O)[C@H](CCC(=O)O)NC(=O)[C@H](C)NC(=O)[C@@H](N)Cc2c[nH]cn2)[C@@H](C)O)[C@@H](C)O)C(=O)N[C@@H](CCCNC(=N)N)C(=O)N[C@@H](CCCNC(=N)N)C(=O)N[C@@H](C)C(=O)N1)C(C)C)C(=O)N[C@@H](CC(=O)O)C(=O)N[C@H](C(N)=O)[C@@H](C)O
B6: [PLA6, E9, K12E16(Lactam)] Cex glucagon(6-39) (Table 13, peptide 5) (peptide)
peptide: [PhLac]TSEYSKYLDERRAQDFVQWLMNTGPSSGAPPPS
modifications: lactam 7-11; not fully specified
B7: [PLA6, D9, K12E16(Lactam), D28]G(6-29) (peptide)
peptide: [PhLac]TSDYSKYLDERRAQDFVQWLMDT-NH2
modifications: lactam 7-11; N-terminus assumed
SMILES: CSCC[C@H](NC(=O)[C@H](CC(C)C)NC(=O)[C@H](Cc1c[nH]c2ccccc12)NC(=O)[C@H](CCC(N)=O)NC(=O)[C@@H](NC(=O)[C@H](Cc1ccccc1)NC(=O)[C@H](CC(=O)O)NC(=O)[C@H](CCC(N)=O)NC(=O)[C@H](C)NC(=O)[C@H](CCCNC(=N)N)NC(=O)[C@H](CCCNC(=N)N)NC(=O)[C@@H]1CCC(=O)NCCCC[C@H](NC(=O)[C@H](CO)NC(=O)[C@H](Cc2ccc(O)cc2)NC(=O)[C@H](CC(=O)O)NC(=O)[C@H](CO)NC(=O)[C@@H](NC(=O)[C@@H](O)Cc2ccccc2)[C@@H](C)O)C(=O)N[C@@H](Cc2ccc(O)cc2)C(=O)N[C@@H](CC(C)C)C(=O)N[C@@H](CC(=O)O)C(=O)N1)C(C)C)C(=O)N[C@@H](CC(=O)O)C(=O)N[C@H](C(N)=O)[C@@H](C)O
B8: D9, K12E16(Lactam) Cex glucagon(6-39) (Table 13, peptide 4) (peptide)
peptide: FTSDYSKYLDERRAQDFVQWLMNTGPSSGAPPPS
modifications: lactam 7-11; not fully specified
B9: E9, K12E16(lactam) Cex glucagon(6-39) (Table 13, peptide 2) (peptide)
peptide: B8 peptide with D4E
modifications: lactam 7-11
B10: E9, E16K20(lactam) Cex glucagon(6-39) (Table 13, peptide 3) (peptide)
peptide: B8 peptide with D4E, Q15K
modifications: lactam 11-15
B11: E9, K12, E16 Cex glucagon(6-39) (Table 13, peptide 1) (peptide)
peptide: B8 peptide with D4E
B12: [A2E3, E16K20(Lactam), D28]G(2~29) (peptide)
peptide: AEGTFTSEYSKYLDERRAKDFVQWLMDT-NH2
modifications: lactam 15-19
B13: ANK2 (Bayer peptide) (peptide)
peptide: HSQGTFTSDYARYLDARRAREFIKWLVRGRG
B14: [PLA6, D9, E16, E24K28(lactam)]G(6~29) (peptide)
peptide: [PhLac]TSDYSKYLDERRAQDFVEWLMKT-NH2
modifications: lactam 19-23; N-terminus assumed
SMILES: CSCC[C@@H]1NC(=O)[C@H](CC(C)C)NC(=O)[C@H](Cc2c[nH]c3ccccc23)NC(=O)[C@@H](NC(=O)[C@@H](NC(=O)[C@H](Cc2ccccc2)NC(=O)[C@H](CC(=O)O)NC(=O)[C@H](CCC(N)=O)NC(=O)[C@H](C)NC(=O)[C@H](CCCNC(=N)N)NC(=O)[C@H](CCCNC(=N)N)NC(=O)[C@H](CCC(=O)O)NC(=O)[C@H](CC(=O)O)NC(=O)[C@H](CC(C)C)NC(=O)[C@H](Cc2ccc(O)cc2)NC(=O)[C@H](CCCCN)NC(=O)[C@H](CO)NC(=O)[C@H](Cc2ccc(O)cc2)NC(=O)[C@H](CC(=O)O)NC(=O)[C@H](CO)NC(=O)[C@@H](NC(=O)[C@@H](O)Cc2ccccc2)[C@@H](C)O)C(C)C)CCC(=O)NCCCC[C@@H](C(=O)N[C@H](C(N)=O)[C@@H](C)O)NC1=O

How the values were obtained:
Assay in all cases: cell-based or functional assay
[1] = biological target: T1, glucagon receptor (UniProt P47871 26-477, limits assumed)
T1 sequence (P47871 26-477 limits assumed): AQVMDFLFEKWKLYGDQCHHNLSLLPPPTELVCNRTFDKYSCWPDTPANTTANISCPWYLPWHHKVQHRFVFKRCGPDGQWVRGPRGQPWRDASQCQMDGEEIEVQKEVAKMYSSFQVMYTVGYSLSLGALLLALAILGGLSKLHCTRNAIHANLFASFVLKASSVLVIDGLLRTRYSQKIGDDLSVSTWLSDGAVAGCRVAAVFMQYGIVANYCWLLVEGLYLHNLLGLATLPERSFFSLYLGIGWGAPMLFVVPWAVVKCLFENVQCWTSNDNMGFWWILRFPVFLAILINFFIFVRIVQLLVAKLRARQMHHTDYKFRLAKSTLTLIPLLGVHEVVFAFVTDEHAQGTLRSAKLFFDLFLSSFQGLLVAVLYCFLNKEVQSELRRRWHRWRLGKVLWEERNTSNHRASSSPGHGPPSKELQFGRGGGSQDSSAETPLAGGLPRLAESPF

[2] = biological target: T2, GLP-1 receptor (UniProt P43220 24-463, limits assumed)
[3] = biological target: T2, GLP-1 receptor; remark: listed apart in the source
[4] = biological target: T1, glucagon receptor; remark: listed apart in the source
[5] = biological target: T1, glucagon receptor; remark: listed apart in the source
[6] = biological target: T2, GLP-1 receptor; remark: listed apart in the source
Target sequence in this assay (P43220 24-463 limits assumed): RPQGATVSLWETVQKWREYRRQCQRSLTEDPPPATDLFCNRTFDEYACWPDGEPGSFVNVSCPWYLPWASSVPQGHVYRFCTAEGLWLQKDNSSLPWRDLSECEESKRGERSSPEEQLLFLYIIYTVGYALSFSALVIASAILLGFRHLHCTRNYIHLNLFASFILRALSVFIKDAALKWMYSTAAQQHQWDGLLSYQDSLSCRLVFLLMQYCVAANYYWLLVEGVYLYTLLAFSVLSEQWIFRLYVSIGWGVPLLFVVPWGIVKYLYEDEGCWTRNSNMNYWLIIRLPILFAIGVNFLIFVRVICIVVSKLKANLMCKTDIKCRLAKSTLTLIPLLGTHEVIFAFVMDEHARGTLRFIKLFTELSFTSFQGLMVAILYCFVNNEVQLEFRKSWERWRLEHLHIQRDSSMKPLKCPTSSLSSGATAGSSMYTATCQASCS

Binder | Glucagon IC50 [1] | GLP-1 EC50 [2] | Glu IC50 [5] | further results
B1 | 74 nM | 239 nM | – | –
B2 | 10 to 30 nM | 151 nM | – | –
B3 | – | – | – | GLP-1 EC50 [3]: ~700 nM
B4 | 10 to 30 nM | – | – | Glucagon IC50 [4]: 6 nM; GLP-1 EC50 [3]: 4 nM
B5 | – | 0.2 nM | – | Glucagon IC50 (PA = partial antagonist) [1]: 130 nM
B6 | – | – | 72 nM | GLP-1 EC50 [6]: 6 nM
B7 | 63 nM | 177 nM | – | Glucagon IC50 [4]: 13 nM; GLP-1 EC50 [3]: 21 nM
B8 | – | – | 828 nM | GLP-1 EC50 [6]: 119 nM; GLP-1 EC50 (column without a head in this part of Table 15) [3]: 18 nM
B9 | – | – | 2010 nM | GLP-1 EC50 [6]: 63 nM
B10 | – | – | 42 nM | GLP-1 EC50 [6]: 36 nM
B11 | – | – | 762 nM | –
B12 | 63 nM | – | – | –
B13 | – | 0.28 nM | – | –
B14 | 22 nM | 289 nM | – | –
